Experimental data taken from article doi:10.1101/2024.11.17.623997.
Where two headings read alike, the source gives them in different places. Values belong to the molecule of their own block, whether it stands above or below them.

Experiments:
[1] = target: AcrVIB1-His (R. anatipestifer); assay: MST
[2] = target: AcrVIB1 (R. anatipestifer); assay: other fluorescence titration
[3] = target: AcrVIB1 (R. anatipestifer); assay: SEC-MALS
[4] = target: T1, PbuCas13b (UniProt E6K398 1-1127); assay: MST
T1 sequence: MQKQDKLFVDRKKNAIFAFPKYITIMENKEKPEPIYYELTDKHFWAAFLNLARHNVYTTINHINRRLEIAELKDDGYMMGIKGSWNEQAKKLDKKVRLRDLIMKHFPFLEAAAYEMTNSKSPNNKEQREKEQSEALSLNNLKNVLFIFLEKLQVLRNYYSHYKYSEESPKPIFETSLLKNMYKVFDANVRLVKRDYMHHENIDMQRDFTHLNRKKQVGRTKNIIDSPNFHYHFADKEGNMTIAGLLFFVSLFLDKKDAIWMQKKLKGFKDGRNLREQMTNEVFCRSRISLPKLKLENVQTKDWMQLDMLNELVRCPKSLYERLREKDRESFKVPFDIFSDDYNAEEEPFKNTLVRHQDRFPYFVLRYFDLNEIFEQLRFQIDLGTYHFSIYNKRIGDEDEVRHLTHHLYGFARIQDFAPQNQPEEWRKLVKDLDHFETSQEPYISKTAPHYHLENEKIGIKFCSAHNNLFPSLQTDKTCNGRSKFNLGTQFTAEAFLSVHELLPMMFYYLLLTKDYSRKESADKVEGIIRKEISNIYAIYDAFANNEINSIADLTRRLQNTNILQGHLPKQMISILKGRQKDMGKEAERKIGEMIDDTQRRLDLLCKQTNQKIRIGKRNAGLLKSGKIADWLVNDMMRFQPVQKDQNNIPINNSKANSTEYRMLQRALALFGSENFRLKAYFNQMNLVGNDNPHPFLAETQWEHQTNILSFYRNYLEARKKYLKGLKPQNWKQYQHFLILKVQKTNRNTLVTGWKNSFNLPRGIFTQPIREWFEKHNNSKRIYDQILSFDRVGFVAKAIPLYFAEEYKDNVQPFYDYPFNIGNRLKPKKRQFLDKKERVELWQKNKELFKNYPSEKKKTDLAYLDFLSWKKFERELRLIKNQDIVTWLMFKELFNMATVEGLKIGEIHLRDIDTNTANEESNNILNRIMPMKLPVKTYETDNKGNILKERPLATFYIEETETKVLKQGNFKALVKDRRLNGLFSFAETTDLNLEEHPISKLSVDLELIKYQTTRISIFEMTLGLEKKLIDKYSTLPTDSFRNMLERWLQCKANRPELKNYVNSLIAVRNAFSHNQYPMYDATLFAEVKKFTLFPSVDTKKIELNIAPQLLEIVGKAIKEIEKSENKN

[5] = target: T1, PbuCas13b; assay: MST; remark: listed apart in the source

- Kd [1]: 44 nM
Molecule: PbuCas13b (enzyme)

- Kd [2]: 251 nM
- stoichiometry N [3]: 1
Molecule: PbuCas13b Helical-2 domain (residues 579 - 747) (domain or fragment)

B1: crRNA-1 processed (KW-RNA-002) (structured_RNA)
RNA: CGUCGCCGUCCAGCUCGACCAGGAUGGGAAGUUGCAUCUGCCUUCUUUUUGAAAGGUAAAAACAAC
- Kd [4]: ~1000 nM

B2: crRNA-1 processed / target RNA 1 (KW-RNA-005) (mixed)
RNA 1: CGUCGCCGUCCAGCUCGACCAGGAUGGGAAGUUGCAUCUGCCUUCUUUUUGAAAGGUAAAAACAAC
RNA 2: ACUGGCGUUGUUCCCAUCCUGGUCGAGCUGGACGGCGACGUAAACGGCCA
- Kd [5]: 85 nM
